Seven molecules from patent US20220332785A1 can be followed below.

For the assay, the target named is p53^R175H LP … (SEQ ID NO: 111) in the context of HLA-DRB1*13:01 (human). Briefly: cell-based or functional assay.

Numbering of substitutions follows the chain as printed.

B1: 4285-PBL-TCR7 (TCR)
TCR alpha: ELKVEQNPLFLSMQEGKNYTIYCNYSTTSDRLYWYRQDPGKSLESLFVLLSNGAVKQEGRLMASLDTKARLSTLHITAAVHDLSATYFCAVAHMDSNYQLIWGAGTKLIIKPNIQNPEPAVYQLKDPRSQDSTLCLFTDFDSQINVPKTMESGTFITDKCVLDMKAMDSKSNGAIAWSNQTSFTCQDIFKETNATYPSSDVPCDATLTEKSFETDMNLNFQNLLVIVLRILLLKVAGFNLLMTLRLWSS
TCR beta: GVTQTPKFRVLKTGQSMTLLCAQDMNHEYMYWYRQDPGMGLRLIHYSVGEGTTAKGEVPDGYNVSRLKKQNFLLGLESAAPSQTSVYFCASSYAGLAAPREQFFGPGTRLTVLEDLRNVTPPKVSLFEPSKAEIANKQKATLVCLARGFFPDHVELSWWVNGKEVHSGVCTDPQAYKESNYSYCLSSRLRVSATFWHNPRNHFRCQVQFHGLSEEDKWPEGSPKPVTQNISAEAWGRADCGITSASYQQGVLSATILYEILLGKATLYAVLVSTLVVMAMVKRKNS
B1: the functional avidity: interferon-gamma secretion (ELISA), lowest peptide concentration recognized is 10 ng/mL.

B2: 4285-PBL-TCR6 (TCR)
TCR alpha: QQVMQIPQYQHVQEGEDFTTYCNSSTTLSNIQWYKQRPGGHPVFLIQLVKSGEVKKQKRLTFQFGEAKKNSSLHITATQTTDVGTYFCAGPGGAGSYQLTFGKGTKLSVIPNIQNPEPAVYQLKDPRSQDSTLCLFTDFDSQINVPKTMESGTFITDKCVLDMKAMDSKSNGAIAWSNQTSFTCQDIFKETNATYPSSDVPCDATLTEKSFETDMNLNFQNLLVIVLRILLLKVAGFNLLMTLRLWSS
TCR beta: QVTQNPRYLITVTGKKLTVTCSQNMNHEYMSWYRQDPGLGLRQIYYSMNVEVTDKGDVPEGYKVSRKEKRNFPLILESPSPNQTSLYFCASSPFVVIGQINEQYFGPGTRLTVTEDLRNVTPPKVSLFEPSKAEIANKQKATLVCLARGFFPDHVELSWWVNGKEVHSGVCTDPQAYKESNYSYCLSSRLRVSATFWHNPRNHFRCQVQFHGLSEEDKWPEGSPKPVTQNISAEAWGRADCGITSASYQQGVLSATILYEILLGKATLYAVLVSTLVVMAMVKRKNS
Molecule B2 came in with a functional avidity: interferon-gamma secretion (ELISA), lowest peptide concentration recognized of 10 ng/mL.

B3: 4285-PBL-TCR1 (TCR)
TCR alpha: KTTQPNSMESNEEEPVHLPCNHSTISGTDYIHWYRQLPSQGPEYVIHGLTSNVNNRMASLAIAEDRKSSTLILHRATLRDAAVYYCILRDNNARLMFGDGTQLVVKPNIQNPEPAVYQLKDPRSQDSTLCLFTDFDSQINVPKTMESGTFITDKCVLDMKAMDSKSNGAIAWSNQTSFTCQDIFKETNATYPSSDVPCDATLTEKSFETDMNLNFQNLLVIVLRILLLKVAGFNLLMTLRLWSS
TCR beta: QVTQNPRYLITVTGKKLTVTCSQNMNHEYMSWYRQDPGLGLRQIYYSMNVEVTDKGDVPEGYKVSRKEKRNFPLILESPSPNQTSLYFCASGLVGFNQPQHFGDGTRLSILEDLRNVTPPKVSLFEPSKAEIANKQKATLVCLARGFFPDHVELSWWVNGKEVHSGVCTDPQAYKESNYSYCLSSRLRVSATFWHNPRNHFRCQVQFHGLSEEDKWPEGSPKPVTQNISAEAWGRADCGITSASYQQGVLSATILYEILLGKATLYAVLVSTLVVMAMVKRKNS
For B3, the functional avidity: interferon-gamma secretion (ELISA), lowest peptide concentration recognized came out at 10 ng/mL.

B4: 4285-PBL-TCR2 (TCR)
TCR alpha: KTTQPPSMDCAEGRAANLPCNHSTISGNEYVYWYRQIHSQGPQYIIHGLKNNETNEMASLIITEDRKSSTLILPHATLRDTAVYYCIVRARANAGGTSYGKLTFGQGTILTVHPNIQNPEPAVYQLKDPRSQDSTLCLFTDFDSQINVPKTMESGTFITDKCVLDMKAMDSKSNGAIAWSNQTSFTCQDIFKETNATYPSSDVPCDATLTEKSFETDMNLNFQNLLVIVLRILLLKVAGFNLLMTLRLWSS
TCR beta: GITQSPKYLFRKEGQNVTLSCEQNLNHDAMYWYRQDPGQGLRLIYYSQIVNDFQKGDIAEGYSVSREKKESFPLTVTSAQKNPTAFYLCASLQFNEQFFGPGTRLTVLEDLRNVTPPKVSLFEPSKAEIANKQKATLVCLARGFFPDHVELSWWVNGKEVHSGVCTDPQAYKESNYSYCLSSRLRVSATFWHNPRNHFRCQVQFHGLSEEDKWPEGSPKPVTQNISAEAWGRADCGITSASYQQGVLSATILYEILLGKATLYAVLVSTLVVMAMVKRKNS
In the case of B4, the functional avidity: interferon-gamma secretion (ELISA), lowest peptide concentration recognized is 10 ng/mL.

B5: 4285-PBL-TCR5 (TCR)
TCR alpha: B4 TCR alpha with A90G, R91S, A92P, N93G
TCR beta: B4 TCR beta with L92S, Q93I, F94R, N95T, Q97A, P101Q, L108V
In the case of B5, the functional avidity: interferon-gamma secretion (ELISA), lowest peptide concentration recognized turned out to be 10 ng/mL.

B6: 4285-PBL-TCR9 (TCR)
TCR alpha: B4 TCR alpha
TCR beta: B4 TCR beta with S91T, L92R, Q93T, F94G, Q97A, P101Q, L108V
B6 displayed a functional avidity: interferon-gamma secretion (ELISA), lowest peptide concentration recognized of 10 ng/mL.

B7: 4285-PBL-TCR3 (TCR)
TCR alpha: KDQVFQPSTVASSEGAVVEIFCNHSVSNAYNFFWYLHFPGCAPRLLVKGSKPSQQGRYNMTYERFSSSLLILQVREADAAVYYCAVEDRRRTALIFGKGTTLSVSSNIQNPEPAVYQLKDPRSQDSTLCLFTDFDSQINVPKTMESGTFITDKCVLDMKAMDSKSNGAIAWSNQTSFTCQDIFKETNATYPSSDVPCDATLTEKSFETDMNLNFQNLLVIVLRILLLKVAGFNLLMTLRLWSS
TCR beta: EPEVTQTPSHQVTQMGQEVILRCVPISNHLYFYWYRQILGQKVEFLVSFYNNEISEKSEIFDDQFSVERPDGSNFTLKIRSTKLEDSAMYFCASSEYQSQSNEQFFGPGTRLTVLEDLRNVTPPKVSLFEPSKAEIANKQKATLVCLARGFFPDHVELSWWVNGKEVHSGVCTDPQAYKESNYSYCLSSRLRVSATFWHNPRNHFRCQVQFHGLSEEDKWPEGSPKPVTQNISAEAWGRADCGITSASYQQGVLSATILYEILLGKATLYAVLVSTLVVMAMVKRKNS
Molecule B7 showed a functional avidity: interferon-gamma secretion (ELISA), lowest peptide concentration recognized of 10 ng/mL.
